Assay results as given in patent publication US20220298212A1 (Molecular Partners, published 2022).

B1: DARPin® protein #9 (designed binder)
chain: MRGSHHHHHHGSDLGEKLLHAAYYGQDDEVRILLAAGADVNAKDNIGVTPLHFAAYFGHLEIVEVLLKAGADVNAQDYYGKTPADLAAYHGHEDIAEVLQKLN
B2: DARPin® protein #10 (designed binder)
chain: MRGSHHHHHHGSDLGDKLLHAAYYGQDDEVRILLAAGADVNAKDNIGVTPLHFAAYFGHLEIVEVLLKAGADVNAQDYYGKTPADLAAYHGHEDIAEVLQKLN
B3: DARPin® protein #2 (designed binder)
chain: MRGSHHHHHHGSDLGKKLLVAANVGQDDEVRILLAAGADVNAKDYHGYTPLHHAATYGHLEIVEVLLKAGADVNAKDQTGLTPLHLAAAKGHLEIVEVLLKAGADVNAQDHHGYTPADLAAFVGHEDIAVVLQKLN
B4: DARPin® protein #6 (designed binder)
chain: MRGSHHHHHHGSDLGKKLLVAANVGQDDEVRILLAAGADVNAKDYHGYTPLHHAATYGHLEIVEVLLKAGADVNAKDQTGLTPLHLAAAKGHLEIVEVLLKAGADVNAQDHHGYTPADLAAFVGHEDIAVVLQKLN
B5: DARPin® protein #5 (designed binder)
chain: MRGSHHHHHHGSDLGKKLLEAARAGQDDEVRELLKAGADVNAKDQEHGSTPLHLAANYGHLEIVEVLLKAGADVNAKNWWGNTPLHLAAVYGHLEIVEVLLKAGADVNAKDNHGHTPLHLAAWYGHLEIVEVLLKAGADVNAQDKSGKTPADLAADAGHEDIAEVLQKAA
B6: DARPin® protein #13 (designed binder)
chain: MRGSHHHHHHGSDLGLKLLYAAAEGQDDEVRILLAAGADVNAKDTRGQTPLHYAAWFGHLEIVEVLLKAGADVNAKDWSGDTPLHVAAWRGHLEIVEVLLKAGADVNAQDNSGNTPADLAAWIGHEDIAEVLQKLN
B7: DARPin® protein #26 (designed binder)
chain: MRGSHHHHHHGSDLGKKLLEAARAGQDDEVRELLKAGADVNAKDHAGQTPLHIAALRGHLEIVEVLLKAGADVNAKDKYGQTPLHLAAILGHLEIVEVLLKAGADVNAKDQEGDTPLHIAAWQGHLEIVEVLLKAGADVNAQDKSGKTPADLAADAGHEDITEVLQKLN
B8: DARPin® protein #7 (designed binder)
chain: MRGSHHHHHHGSDLGSKLLNAARKGQDDEVRILLAAGADVNAKDYYGQTPLHLAAVFGHLEIVEVLLKAGADVNAKDVLGRTPLHVAAYAGHLEIAEVLLKAGADVNAQDFDGFTPADLAAYVGLEDIAEVLQKLN
B9: DARPin® protein #3 (designed binder)
chain: MRGSHHHHHHGSDLGRKLLQAAQLGQDDEVRELLKAGADVNAKDSRGITPLHVAAWQGHLEIVEVLLKASADVNAKDHAGITPLHLAAFLGHLEIVEVLLKAGADVNAQDQEGRTPADLAALQGHEDIAKVLQKLN
B10: DARPin® protein #27 (designed binder)
chain: MRGSHHHHHHGSDLGKKLLEAARAGQDDEVRELLKAGADVNAKDHQGATPLHNAAWAGHLEIVEVLLKAGADVNAKDKAGYTPLHIAAITGHLEIVEVLLKAGADVNAKDQWGKTPLHLAAQVGHLEIVEVLLKAGADVNAQDKSGKTPADLAADAGHEDIAKVLQKLN
B11: DARPin® protein #18 (designed binder)
chain: MRGSHHHHHHGSDLGYKLLYAAAYGQDDEVRILLAAGADVNAKDQYGETPLHHAASHGHLEIVEVLLKAGADVNAKDTLGDTPLHLAAVVGHLEIVEVLLKAGADVNAQDTEGKTPADLAAYTGHEDIAEVLQKLN
B12: DARPin® protein #4 (designed binder)
chain: MRGSHHHHHHGSDLGKKLLEAARAGQDDEVRELLKAGADVNAKDTYGETPLHLAAWKGHLEIVEVLLKAGADVNAKDSIGITPLHVAAHHGHLEIVEVLLKAGADVNAKDKWGRTPLHLAALLGHLEIAEVLLKAGADVNAQDKSGKTPADLAADAGHDDIAEVLQKLN
B13: DARPin® protein #25 (designed binder)
chain: MRGSHHHHHHGSDLGKKLLEAARAGQDDEVRELLKAGADVNAKDEWGETPLHLAAWKGHLEIVEVLLKAGADVNAKDSIGITPLHVAAHHGHLEIVEVLLKAGADVNAKDKWGRTPLHLAALLGHLEIVEVLLKAGADVNAQDKSGKTPADLAADAGREDIAEVLQKLN
B14: DARPin® protein #19 (designed binder)
chain: MRGSHHHHHHGSDLGKKLLEAARAGQDDEVRELLKAGADVNAKDTHGWTPLHVAALEGHLEIVEVLLKAGAYVNAKDEWGQTPLHVAAWRGHLEIVEVLLKAGADVNAKDRYGWTPLHIAAWLGHLEIAEVLLKAGADVNAQDKSGKTPADLAADAGQEDIVEVLQKLN
B15: DARPin® protein #1 (designed binder)
chain: MRGSHHHHHHGSDLGQKLLKAAQEGQDDEVRELLKAGADVNAKDLRGITPLHVAAWQGHLEIVEVLLKAGADVNAKDSKGETPLHLAAFRGHLEIVEVLLKAGADVNAQDQQGETPADLAALAGHVDIAEVLQKAA
B16: DARPin® protein #16 (designed binder)
chain: MRGSHHHHHHGSDLGAKLLNAAFFGQDDEVRILLAAGADVNAKDDYGHTPLHWAAVTGHLEIVEVLLKAGADVNAKDWLGETPLHHAAYEGHLEIVEVLLKAGADVNAQDEQGETPADLAAYEGHEDIAEVLLKAGADVNAQDDKGFTPADLAAIVGHEDIAEVLQKLN
B17: DARPin® protein #8 (designed binder)
chain: MRGSHHHHHHGSDLGKKLLEAARAGQDDEVRELLKAGADVNAKDRFGSTPLHIAAREGHLEIVEVLLKAGADVNAKDSWGATPLHIAAWRGHLEIVEVLLKAGADVNAKDRWGRTPLHIAAWTGHLEIVEVLLKACADVNAQDKSGKTPADLAADVGLEDIAEVLQKLN
B18: DARPin® protein #22 (designed binder)
chain: MRGSHHHHHHGSDLGEKLLWAAWEGQGDEVRILLAAGADVNAKDLTGRTPLHFAAHSGHLEIVEVLLKAGADVNAKDNAGRTPLHLAAELGHLEIVEVLLKAGADVNAQDKSGKTPADLAADAGHEDIAEVLQKAA
B19: DARPin® protein #23 (designed binder)
chain: MRGSHHHHHHGSDLGEKLLWAAYLGQDDEVRILLAAGADVNAKDATGRTPLHFAAHSGHLEIVEVLLKAGADVNAKDNAGRTPLHLAAELGHLEIVEVLLKAGADVNAQDKSGKTPADLAADAGHEDIAEVLQKAA
B20: DARPin® protein #21 (designed binder)
chain: MRGSHHHHHHGSDLGEKLLTAAYYGQDDEVRILLAAGADVNAKDKQGLTPLHYAAAVGHLEIVEVLLKAGTDVNAKDFYGETPLHLAASRGHLEIVEVLLKAGADVNAQDKSGKTPADLAADAGHEDIAEVLQKAA
B21: DARPin® protein #20 (designed binder)
chain: MRGSHHHHHHGSDLGEKLLHAAYYGQDDEVRILLAAGADVNAKDDQGLTPLHLAAAIGHLEIVEVLLKAGADVNAKDAYGETPLHLAARRGHLEIVEVLLKAGADVNAQDKSGKTPADLAADAGHEDIAEVLQKAA
B22: DARPin® protein #24 (designed binder)
chain: MRGSHHHHHHGSDLGEKLLNAAYYGQDDEVRILLAAGADVNAKDVKGETPLHYAAAVGHLEIVEVLLKAGADVNAKDQYGATPLHLAAYKGHLEIVEVLLKAGADVNAQDKSGKTPADLAADAGHEDIAEVLQKAA
B23: DARPin® protein #17 (designed binder)
chain: MRGSHHHHHHGSDLGEKLLYAAYYGQDDEVRILLAAGADVNAKDHVGLTPLHYAAAIGHLEIVEVLLKAGADVNAKDHYGYTPLHYAAYKGHLEIVEVLLKAGADVNAQDSAGHTPADLAAHHGHEDIAEVLQKLN
B24: DARPin® protein #14 (designed binder)
chain: MRGSHHHHHHGSDLGQKLLYAAFYGQDDEVRILLAAGADVNAKDFFGTTPLHWAAHAGHLEIVEVLLKAGADVNAKDQWGTTPLHYAAYYGHLEIVEVLLKAGADVNAQDDKGFTPADLAAIVGHEDIAEVLQKLN
B25: DARPin® protein #15 (designed binder)
chain: MRGSHHHHHHGSDLGQKLLYAAYYGQDDEVRILLAAGADVNAKDFFGTTPLHWAAHAGHLEIVEVLLKAGADVNAKDQWGTTPLHYAAYQGHLEIVEVLLKAGADVNAQDTTGATPADLAAQAGHEDIAEVLQKLN
B26: DARPin® protein #11 (designed binder)
chain: MRGSHHHHHHGSDLGWKLLSAAWQGQDDEVRILLAAGADVNAKDTFGTTPLHWAAHAGHLEIVEVLLKAGADVNAKDQWGTTPLHYAAYYGHLEIVEVLLKAGADVNAQDDKGFTPADLAAIVGHEDIAEVLQKLN
B27: DARPin® protein #12 (designed binder)
chain: MRGSHHHHHHGSDLGQKLLHTAYDGQDDEVRILLAAGADVNAKDFFGTTPLHWAAHAGHLEIVEVLLKAGADVNAKDQWGTTPLHYAAYYGHLEIVEVLLKAGADVNAQDDKGFTPADLAAIVGHEDIAEVLQKLN

molecular target: T1, biotinylated human 4-1BB (recombinant Fc fusion protein of the extracellular domain of human 4-1BB) (human, UniProt Q07011 24-186, biotinylated (site not stated)); test: SPR (ProteOn), biotinylated human 4-1BB on NLC chip, PBST
T1 construct: Bought from BPS Bioscience; tie to the Fc fusion is by the Materials paragraph; also called h4-1BB; CD137; not shown: Fc part of the purchased fusion (BPS Bioscience)
Procedure: Briefly, biotinylated human 4-1 BB was diluted in PBST (PBS, pH 7.4 containing 0.005% Tween 20®) and coated on a NLC chip (BioRad) to a level of around 320 resonance units (RU) (600 RU for single trace SPR measurements). The interaction of ankyrin repeat protein and h4-1 BB was then measured by injecting 200 μl running buffer (PBS, pH 7.4 containing 0.005% Tween 20®) containing serial dilutions of ankyrin repeat proteins covering a concentration range between 50 nM and 0.5 nM for multi-trace SPR measurements or 50 nM for single trace measurements (on-rate measurement), followed by a running buffer flow for at least 30 minutes at a constant flow rate of 100 μl/min (off-rate measurement). The regeneration was performed using 30 μl of 10 mM Glycine pH 2 followed by 30 μl of 124 mM H₃PO₄. The signals (i.e. resonance unit (RU) values) of the interspots and a reference injection (i.e. injection of running buffer only) were subtracted from the RU traces obtained after injection of ankyrin repeat protein (double-referencing). Based on the SPR traces obtained from the on-rate and off-rate measurements, the on- and off-rate of the corresponding ankyrin repeat protein—4-1 BB interaction was determined.
Dissociation constants (KD) were calculated from the estimated on- and off-rates using standard procedures known to the person skilled in the art.

Binder | Kd [pM]
B1 | 190
B2 | 250
B3 | 860
B4 | 2580
B5 | 350
B6 | 690
B7 | 830
B8 | 540
B9 | 1250
B10 | 3960
B11 | 1470
B12 | 2250
B13 | 1560
B14 | 1600
B15 | 470
B16 | 1600
B17 | 20
B18 | 130
B19 | 600
B20 | 160
B21 | 480
B22 | 290
B23 | 500
B24 | 510
B25 | 5000
B26 | 380
B27 | 740
